Source: paper PMC12004451, “Characterization of the Two-Domain Peptide Binding Mechanism of the Human CGRP Receptor for CGRP and the Ultrahigh Affinity ssCGRP Variant” (Biochemistry, 2025)
Several values for one entry are separate records, joined by “and”; a condition that tells them apart may be missing. Identical values can stand only once. Like-named read-outs stand apart in the source and are kept apart here. Ends that are not written are not given here. Peptide text beside a SMILES is read from it. * marks the point of attachment. 5TAMRA = CN(C)c1ccc2c(c1)Oc1cc(N(C)C)ccc1C21OC(=O)c2cc(C(=O)*)ccc21

Legend:
[1] = biological target: T1, CGRP receptor (Nluc-CLR:RAMP1) (Homo sapiens, UniProt O60894+Q16602); assay: nanoBRET dissociation kinetics of TAMRA probes; type: binding
T1 construct: N-terminally Nanoluciferase (NLuc)-tagged CLR (pcDNA3.1(+)sec/NanoLuc-GSGIS-CLR.23-461); Wild-type CLR and RAMP expression plasmids were obtained from cDNA.org; sec (vector secretion signal before NanoLuc) (N); expressed in transfected cells; host or cells: COS-7 cells, membrane preparation
Experimental: After 2 days, the cells were washed with PBS and harvested with ice-cold PBS + 5 mM EDTA. The cells were pelleted in a centrifuge at 1000g for 5 min at 4 °C and resuspended in a hypotonic buffer (25 mM NaHEPES pH 7.5, 2 mM MgCl2, 1 mM EDTA, and 1× EDTA-free PIERCE protease inhibitor tablet). After resuspension, cells were homogenized with an Ultra Turrax for 30 s at 10,000 rpm followed by a 10 min incubation. Cell debris was pelleted at 800g for 10 min and the supernatant was transferred to ultracentrifuge tubes and centrifuged at 100,000g for 1 h. Membranes were resuspended in a wash buffer (25 mM NaHEPES pH 7.5, 250 mM NaCl, 2 mM MgCl2, 1 mM EDTA, and 1× protease inhibitor tablet). The homogenization and ultracentrifugation were repeated once more and the membranes were resuspended in storage buffer (25 mM NaHEPES pH 7.5, 25 mM NaCl, 2 mM MgCl2, 10% v/v glycerol, and 1× protease inhibitor tablet). The resuspended membranes were homogenized, aliquoted, and flash frozen in liquid nitrogen for storage at -80 °C. Total protein was quantitated using the DC protein assay (BioRad) per the manufacturer's instructions. The concentration of NLuc-CLR was determined by comparing the membrane prep luminescence to a standard curve using purified NLuc enzyme (Promega; […]). The total protein concentration was 0.91 mg/mL and the NLuc-CLR was 7.35 nM. For dissociation kinetics, the membranes and probe in binding buffer were incubated in a 96-well white plate (Corning; Costar 3912) followed by furimazine addition at 1× for 5 min (75 μL volume). […] The buffer control defined the stability of the signal. […] Unlabeled […](8-37) (4×; 10 μM) or binding buffer was loaded into the injectors and injected into the plate, which was read for 4 h. […](8-37) (4×; 1 μM) or binding buffer was loaded into the injectors and injected into the plate, which was read for 1 h. The BRET ratio 610/460 was plotted against time and the membrane only control was subtracted. The dissociation data were normalized to their corresponding buffer control injections as 100% (100*value/baseline) to account for signal decay with time. The normalized dissociation curves were fit to a one-phase (dashed line) (https://www.graphpad.com/guides/prism/latest/curve-fitting/reg_exponential_[…]) or a two-phase (solid line) (https://www.graphpad.com/guides/prism/latest/curve-fitting/reg_exponential_[…]) exponential decay models in GraphPad Prism to determine the koff.

[2] = biological target: T1, CGRP receptor (Nluc-CLR:RAMP1); assay: nanoBRET association kinetics of TAMRA probes; type: binding; conditions: association kinetics, 25 °C, mean ± SEM, n=3
Experimental: After 2 days, the cells were washed with PBS and harvested with ice-cold PBS + 5 mM EDTA. The cells were pelleted in a centrifuge at 1000g for 5 min at 4 °C and resuspended in a hypotonic buffer (25 mM NaHEPES pH 7.5, 2 mM MgCl2, 1 mM EDTA, and 1× EDTA-free PIERCE protease inhibitor tablet). After resuspension, cells were homogenized with an Ultra Turrax for 30 s at 10,000 rpm followed by a 10 min incubation. Cell debris was pelleted at 800g for 10 min and the supernatant was transferred to ultracentrifuge tubes and centrifuged at 100,000g for 1 h. Membranes were resuspended in a wash buffer (25 mM NaHEPES pH 7.5, 250 mM NaCl, 2 mM MgCl2, 1 mM EDTA, and 1× protease inhibitor tablet). The homogenization and ultracentrifugation were repeated once more and the membranes were resuspended in storage buffer (25 mM NaHEPES pH 7.5, 25 mM NaCl, 2 mM MgCl2, 10% v/v glycerol, and 1× protease inhibitor tablet). The resuspended membranes were homogenized, aliquoted, and flash frozen in liquid nitrogen for storage at -80 °C. Total protein was quantitated using the DC protein assay (BioRad) per the manufacturer's instructions. The concentration of NLuc-CLR was determined by comparing the membrane prep luminescence to a standard curve using purified NLuc enzyme (Promega; […]). […] Costar 3912). […] The observed association rates (kobs) were plotted against probe concentration and the data was analyzed by linear regression. The kon and koff were obtained as the slope and y-intercept, respectively.

[3] = biological target: NLuc-CLR:RAMP1 (human CGRP receptor, CGRPR), membrane preparation (human) (UniProt Q16602); assay: FRET or BRET; nanoBRET equilibrium saturation binding; 3-fold serial dilutions of TAMRA probe with NLuc-CLR:RAMP1 membranes (0.01 mg/mL total protein, 0.08 nM NLuc-CLR) and 50 μM GTPγS (uncoupled state); 2 h or 4 h; room temperature; 25 mM NaHEPES pH 7.4, […] NaCl, 5 mM KCl, 1 mM KH2PO4, 3 mM MgSO4, 2 mM CaCl2, 1 mg/mL FAF-BSA, 50 μg/mL saponin; one-site specific binding fit
[4] = biological target: NLuc-CLR:RAMP1 (human CGRP receptor, CGRPR), membrane preparation (human) (UniProt Q16602); assay: FRET or BRET; nanoBRET association kinetics; membranes injected into 2-fold serial dilutions of TAMRA probe; 25 °C; one-phase association fits, kobs against probe concentration by linear regression (kon slope, koff intercept); Kd calculated as koff/kon
[5] = biological target: NLuc-CLR:RAMP1 (human CGRP receptor, CGRPR), membrane preparation (human) (UniProt Q16602); assay: FRET or BRET; nanoBRET dissociation kinetics; membranes preincubated with probe (1 nM ssCGRP(8-37)-TAMRA or 10 nM AM2/IMD(8-47)-TAMRA), dissociation started by injection of excess unlabeled ssCGRP(8-37); 25 °C; normalised to buffer control; two-phase exponential decay
[6] = biological target: NLuc-CLR:RAMP1 membranes with 30 μM purified sumo-miniGs (G protein-coupled state of the CGRPR) (UniProt Q16602); assay: FRET or BRET; nanoBRET equilibrium saturation binding; as the uncoupled format but with 30 μM purified sumo-miniGs (G protein coupled state); 4 h; room temperature
[7] = biological target: T1, CGRP receptor (Nluc-CLR:RAMP1); assay: nanoBRET equilibrium competition binding, Nluc-CLR:RAMP1 membranes; conditions: 8 h, room temperature, Cheng-Prusoff, mean ± SEM, n=3
Experimental: After 2 days, the cells were washed with PBS and harvested with ice-cold PBS + 5 mM EDTA. The cells were pelleted in a centrifuge at 1000g for 5 min at 4 °C and resuspended in a hypotonic buffer (25 mM NaHEPES pH 7.5, 2 mM MgCl2, 1 mM EDTA, and 1× EDTA-free PIERCE protease inhibitor tablet). After resuspension, cells were homogenized with an Ultra Turrax for 30 s at 10,000 rpm followed by a 10 min incubation. Cell debris was pelleted at 800g for 10 min and the supernatant was transferred to ultracentrifuge tubes and centrifuged at 100,000g for 1 h. Membranes were resuspended in a wash buffer (25 mM NaHEPES pH 7.5, 250 mM NaCl, 2 mM MgCl2, 1 mM EDTA, and 1× protease inhibitor tablet). The homogenization and ultracentrifugation were repeated once more and the membranes were resuspended in storage buffer (25 mM NaHEPES pH 7.5, 25 mM NaCl, 2 mM MgCl2, 10% v/v glycerol, and 1× protease inhibitor tablet). The resuspended membranes were homogenized, aliquoted, and flash frozen in liquid nitrogen for storage at -80 °C. Total protein was quantitated using the DC protein assay (BioRad) per the manufacturer's instructions. The concentration of NLuc-CLR was determined by comparing the membrane prep luminescence to a standard curve using purified NLuc enzyme (Promega; […]). […] The Cheng-Prusoff correction[30] was used to calculate the Ki from the IC50.

[8] = biological target: NLuc-CLR:RAMP1 (human CGRP receptor, CGRPR) in COS-7 membranes (human) (UniProt Q16602); assay: FRET or BRET; nanoBRET association kinetics of TAMRA probe on NLuc-CLR:RAMP1 COS-7 membranes, 25 C; kobs against probe concentration, linear regression; Kd calculated as koff/kon
[9] = biological target: NLuc-CLR:RAMP1 (human CGRP receptor, CGRPR) in COS-7 membranes (human) (UniProt Q16602); assay: FRET or BRET; nanoBRET equilibrium saturation binding of TAMRA probe to NLuc-CLR:RAMP1 COS-7 membranes (0.08 nM NLuc-CLR), G protein uncoupled state with 50 uM GTPgammaS, room temperature, 25 mM NaHEPES pH 7.4, […] NaCl; one-site specific binding fit
[10] = biological target: NLuc-CLR:RAMP1 (human CGRP receptor, CGRPR), membrane preparation (human) (UniProt Q16602)
[11] = biological target: NLuc-CLR:RAMP1 (human CGRP receptor, CGRPR), membrane preparation (human) (UniProt Q16602); assay: FRET or BRET; nanoBRET competition association kinetics, simultaneous addition of 20 nM CGRP(27-37)*-TAMRA and unlabeled (27-37) peptide; 25 °C; Motulsky-Mahan equation with a signal decay term; Kd calculated as koff/kon
[12] = 1/koff slow, two-phase dissociation, read-out: Residence time slow

With CC(C)C[C@H](NC(=O)CNC(=O)[C@H](C)NC(=O)[C@H](CC(C)C)NC(=O)[C@H](CCCNC(=N)N)NC(=O)[C@H](Cc1c[nH]cn1)NC(=O)[C@@H](NC(=O)[C@@H](N)C(C)C)[C@@H](C)O)C(=O)N[C@@H](CC(C)C)C(=O)N[C@@H](CO)C(=O)N[C@@H](CCCNC(=N)N)C(=O)N[C@@H](CO)C(=O)NCC(=O)NCC(=O)N[C@H](C(=O)N[C@H](C(=O)N[C@@H](CCCCN)C(=O)N[C@@H](CC(N)=O)C(=O)N[C@@H](CCCCNC(=O)c1ccc2c(c1)C(=O)OC21c2ccc(N(C)C)cc2Oc2cc(N(C)C)ccc21)C(=O)N[C@@H](Cc1ccccc1)C(=O)N[C@H](C(=O)N1CCC[C@H]1C(=O)N[C@H](C(=O)N[C@@H](CC(=O)O)C(=O)N[C@H](C(=O)NCC(=O)N1CCC[C@H]1C(=O)N[C@@H](Cc1c[nH]c2ccccc12)C(=O)N[C@@H](CO)C(=O)N[C@@H](Cc1ccccc1)C(N)=O)C(C)C)[C@@H](C)O)C(C)C)C(C)C)C(C)C [ssCGRP(8-37)-TAMRA, αCGRP(8-37) N26K-TAMRA/N31D/S34P/K35W/A36S] (H-VTHRLAGLLSRSGGVVKNK(5TAMRA)FVPTDVGPWSF-NH2; N-terminus assumed) as the compound, how does the residence time ([1]; 1/koff fast, two-phase dissociation, read-out: Residence time fast) read?
Its residence time is 19.1 ± 1.9 min.

And the residence time [1, 12]?
The residence time was 75.7 ± 3.49 min.

What about the t1/2 fast ([1]; ln 2/koff fast, two-phase dissociation) of the same compound?
The t1/2 fast was 13.25 ± 1.32 min and 13 min.

And the t1/2 slow ([1]; ln 2/koff slow, two-phase dissociation)?
The t1/2 slow was 52.45 ± 2.42 min and 52 min.

What about the Percent fast ([1]; share of the fast component, two-phase dissociation) of the same compound?
Its Percent fast is 25.6 ± 3.5% and 25.6%.

What about the koff ([1]; two-phase exponential decay, same conditions as koff fast, mean ± SEM, n=3) of the same compound?
The koff was 0.000222 s⁻¹.

What about the kon ([2]; kobs vs probe concentration, slope of linear regression, fit of first 10 min (full 1 h 15 min for ssCGRP(8-37)-TAMRA)) of the same compound?
The kon was 3.62e+06 M⁻¹ s⁻¹.

And the koff ([2]; y-intercept of kobs vs probe concentration)?
Its koff is 0.0003 s⁻¹.

What does the source list for “αCGRP(8-37) N26K-TAMRA/N31D/S34P/K35W/A36S (peptide)”?
Kd [3]: 0.4 nM; Kd [4]: 0.085 nM; half-life [4]: 38 min; koff [4]: 0.0003 s⁻¹; kon [4]: 3.62e+06 M⁻¹ s⁻¹; half-life of the fast component [5]: 13 min; half-life of the slow component [5]: 52 min; koff fast [5]: 0.053 min^–1; koff slow [5]: 0.013 min^–1; residence time (1/koff slow) [5]: 76 min; residence time of the fast component [5]: 19 min

With AM2/IMD(8-47)-TAMRA (peptide) as the compound, how does the Kd [6] read?
The Kd was 6.5 nM.

And the Kd [4]?
The Kd was 8.1 nM.

What about the half-life [4] of the same compound?
The half-life was 1.6 min.

Which results are given for “VTHRLAGLLSRSGGVVKNNFVPTDVGPWSF-NH2 [ssCGRP(8-37)]”?
residence time [1, 12]: 76 min; Ki ([7]; G protein coupled state (30 μM sumo-miniGs), 3 nM AM2/IMD(8-47)-TAMRA probe, read-out: Ki + mGs): 0.6 ± 0.05 nM; Ki ([7]; G protein uncoupled state (50 μM GTPγS), 30 nM AM2/IMD(8-47)-TAMRA probe, read-out: Ki + GTPγS): 0.43 ± 0.02 nM; affinity (summary, both receptor states): 0.5 nM

Which results are given for “αCGRP(27-37) N31D/S34P/K35-TAMRA/A36S/F37Y (peptide)”?
Kd [3]: 28.7 nM; Kd [8]: 22.5 nM; Kd [9]: 28.7 nM; Kd [4]: 22.5 nM; half-life [4]: 0.183 min; koff [4]: 0.0635 s⁻¹; kon [4]: 2.75e+06 M⁻¹ s⁻¹

Which apparent melting temperature of LMNG/CHS-solubilised MBP-CLR-EGFP:MBP-RAMP1 heterodimer, native PAGE thermostability assay (ligand-free 38.2 °C) [10] does the source give for αCGRP(8-37) (peptide) here?
Its apparent melting temperature of LMNG/CHS-solubilised MBP-CLR-EGFP:MBP-RAMP1 heterodimer, native PAGE thermostability assay (ligand-free 38.2 °C) is 43.6 °C.

Which apparent melting temperature of LMNG/CHS-solubilised MBP-CLR-EGFP:MBP-RAMP1 heterodimer, native PAGE thermostability assay (ligand-free 38.2 °C) [10] does the source give for CGRP(27-37) (peptide) here?
The apparent melting temperature of LMNG/CHS-solubilised MBP-CLR-EGFP:MBP-RAMP1 heterodimer, native PAGE thermostability assay (ligand-free 38.2 °C) was 39.8 °C.

What about the half-life [11] of the same compound?
The half-life was 0.06 min.
